Read-outs that look alike come from different tables or passages of the source. Each block holds one molecule with its values, some of them ahead of it.
Assays:
[1] = molecular target: Drosophila melanogaster PlexB1–4-mVenus (Drosophila melanogaster) (UniProt Q9V4A7); assay: MST; plexin-mVenus kept constant, unlabelled semaphorin titrated (1:1 dilution series); 25 °C; 15 mM HEPES pH 7.4, 150 mM NaCl, 2 mM CaCl2, 0.005% Tween-20; 1 h incubation at room temperature; apparent Kd
[2] = molecular target: Drosophila melanogaster full-length secreted semaphorin-2b (Sema2b_(full)) (Drosophila melanogaster); assay: SEC-MALS; Superdex 200 Increase 10/300, 15 mM HEPES pH 7.4, 150 mM NaCl; with SDS-PAGE under reducing and non-reducing conditions; initial concentrations up to 2 mg/ml; monomer to dimer
[3] = molecular target: Drosophila melanogaster semaphorin-1a full-length ectodomain (Sema1a_(ecto)) (Drosophila melanogaster); assay: as above
[4] = molecular target: T1, Drosophila melanogaster PlexA1–4-mVenus (Drosophila melanogaster, UniProt Q9V491 28-730); assay: MST; plexin-mVenus kept constant, unlabelled semaphorin titrated (1:1 dilution series); 25 °C; 15 mM HEPES pH 7.4, 150 mM NaCl, 2 mM CaCl2, 0.005% Tween-20; 1 h incubation at room temperature; apparent Kd
T1 construct: Plexin A, Drosophila melanogaster, domains 1-4 of the ectodomain, residues 28Q-730T; source: HEK293T, transient transfection, purified (HisTrap, SEC); not shown: mVenus, C-terminal, kept
T1 sequence (looked up): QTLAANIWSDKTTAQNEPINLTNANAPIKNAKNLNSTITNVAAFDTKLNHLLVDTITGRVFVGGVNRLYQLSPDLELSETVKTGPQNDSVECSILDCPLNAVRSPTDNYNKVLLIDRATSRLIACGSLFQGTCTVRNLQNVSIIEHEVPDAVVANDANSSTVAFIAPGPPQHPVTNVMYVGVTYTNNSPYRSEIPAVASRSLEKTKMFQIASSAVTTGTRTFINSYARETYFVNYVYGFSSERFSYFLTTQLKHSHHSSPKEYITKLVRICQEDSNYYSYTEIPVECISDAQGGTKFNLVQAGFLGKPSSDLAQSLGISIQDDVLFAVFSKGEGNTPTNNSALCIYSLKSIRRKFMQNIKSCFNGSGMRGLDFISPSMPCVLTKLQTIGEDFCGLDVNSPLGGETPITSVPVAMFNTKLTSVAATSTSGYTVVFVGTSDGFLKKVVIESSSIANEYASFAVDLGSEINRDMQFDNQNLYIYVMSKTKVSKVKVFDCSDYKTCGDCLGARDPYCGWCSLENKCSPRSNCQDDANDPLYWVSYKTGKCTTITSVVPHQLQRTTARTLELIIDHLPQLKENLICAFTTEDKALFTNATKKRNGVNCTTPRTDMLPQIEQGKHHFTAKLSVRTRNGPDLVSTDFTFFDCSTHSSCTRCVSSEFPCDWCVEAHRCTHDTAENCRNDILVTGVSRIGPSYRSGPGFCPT

[5] = molecular target: Sema2b_(full) with the dimerization cysteine mutated to serine (Drosophila melanogaster); assay: SEC-MALS; Superdex 200 Increase 10/300, 15 mM HEPES pH 7.4, 150 mM NaCl; with SDS-PAGE under reducing and non-reducing conditions; initial concentrations up to 2 mg/ml; monomer to dimer
[6] = molecular target: Drosophila melanogaster full-length secreted semaphorin-2b (Sema2b_(full)) (Drosophila melanogaster); assay: SEC-MALS; co-expressed heterodimer purified by HisTrap, StrepTactin and SEC; Superdex 200 Increase 10/300, 15 mM HEPES pH 7.4, 150 mM NaCl; with SDS-PAGE under reducing and non-reducing conditions
[7] = molecular target: the molecule itself; assay: SEC-MALS; Superdex 200 Increase 10/300, 15 mM HEPES pH 7.4, 150 mM NaCl; with SDS-PAGE under reducing and non-reducing conditions; initial concentrations up to 2 mg/ml; monomer to dimer

Drosophila melanogaster PlexB1–4-mVenus (Drosophila melanogaster), sequence (Q9V4A7 35-730): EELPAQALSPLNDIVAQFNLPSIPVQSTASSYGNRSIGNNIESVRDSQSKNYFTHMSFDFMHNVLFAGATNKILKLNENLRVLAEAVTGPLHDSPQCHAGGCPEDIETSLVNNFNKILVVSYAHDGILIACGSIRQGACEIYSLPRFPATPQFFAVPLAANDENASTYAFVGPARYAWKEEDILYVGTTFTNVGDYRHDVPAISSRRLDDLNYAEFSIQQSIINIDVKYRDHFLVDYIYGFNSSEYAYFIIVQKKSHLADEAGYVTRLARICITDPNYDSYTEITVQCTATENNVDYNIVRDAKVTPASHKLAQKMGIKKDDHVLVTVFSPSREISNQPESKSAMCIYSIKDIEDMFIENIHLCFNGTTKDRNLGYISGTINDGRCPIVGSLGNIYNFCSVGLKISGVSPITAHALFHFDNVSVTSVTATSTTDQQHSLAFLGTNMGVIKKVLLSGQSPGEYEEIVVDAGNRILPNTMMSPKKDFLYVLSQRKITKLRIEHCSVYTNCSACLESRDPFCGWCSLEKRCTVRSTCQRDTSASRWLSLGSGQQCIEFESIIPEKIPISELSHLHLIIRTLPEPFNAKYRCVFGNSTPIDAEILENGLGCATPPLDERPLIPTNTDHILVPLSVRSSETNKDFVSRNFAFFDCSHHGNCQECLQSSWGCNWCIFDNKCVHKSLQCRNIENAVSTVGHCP

Molecule: Drosophila melanogaster full-length secreted semaphorin-2b (Sema2b_(full)) (ligand)
stoichiometry N [2]: 2
Kd [1]: 3 nM

Molecule: Drosophila melanogaster semaphorin-1a full-length ectodomain (Sema1a_(ecto)) (domain or fragment)
stoichiometry N [3]: 2

B2: Sema2a_(full) with the dimerization cysteine (Cys279) mutated to serine (ligand, Drosophila melanogaster, UniProt Q24323 26-724, looked up)
chain: DYENTWNFYYERPCCTGNDQGNNNYGKHGADHVREFNCGKLYYRTFHMNEDRDTLYVGAMDRVFRVNLQNISSSNCNRDVINLEPTRDDVVSCVSKGKSQIFDCKNHVRVIQSMDQGDRLYVCGTNAHNPKDYVIYANLTHLPRSEYVIGVGLGIAKCPYDPLDNSTAIYVENGNPGGLPGLYSGTNAEFTKADTVIFRTDLYNTSAKRLEYKFKRTLKYDSKWLDKPNFVGSFDIGEYVYFFFRETAVEYINSGKAVYSRIARVCKKDVGGKNLLAHNWATYLKARLNCSISGEFPFYFNEIQSVYQLPSDKSRFFATFTTSTNGLIGSAVCSFHINEIQAAFNGKFKEQSSSNSAWLPVLNSRVPEPRPGTCVNDTSNLPDTVLNFIRSHPLMDKAVNHEHNNPVYYKRDLVFTKLVVDKIRIDILNQEYIVYYVGTNLGRIYKIVQYYRNGESLSKLLDIFEVAPNEAIQVMEISQTRKSLYIGTDHRIKQIDLAMCNRRYDNCFRCVRDPYCGWDKEANTCRPYELDLLQDVANETSDICDSSVLKKKIVVTYGQSVHLGCFVKIPEVLKNEQVTWYHHSKDKGRYEIRYSPTKYIETTERGLVVVSVNEADGGRYDCHLGGSLLCSYNITVDAHRCTPPNKSNDYQKIYSDWCHEFEKYKTAMKSWEKKQAQCSTRQNFSSNQHPNEIFRKPNV
notes: Semaphorin-2a, Drosophila melanogaster, residues 26D-724V, Cys279 to serine; also called Sema2a_(full) Cys to Ser mutant; source: HEK293T, transient transfection, purified (HisTrap, SEC)
stoichiometry N [7]: 2

B3: Sema1b_(ecto) with phenylalanine 254 mutated to cysteine (domain or fragment, Drosophila melanogaster, UniProt Q7KK54 37-659, looked up)
chain: DVKPDLQTKQDKVLAHFIGNSTDYFKILDHNDEFVLVGAKDVIYNVSLNGLKEIARLEWHSTDADRELCALKGKHEWDCHNYLRVYALRPNGEVLLCGTNSYKPRCRHYTPVEVSSEEAGSAGHAHAMRYEVSRDVEAQGLCPYSPAHNSTYAFADGHLYSATVADFSGGDPLIYRENLRTEQYDLKQLNQPDFVGAIERNGYVLFFFRELSMEVMNCGKAVYSRVARVCKNDRGGPYSHGKSWTSFLKARLNCSVPGEFPFYFDEIQAISPIVESGSKSLIYAVFTTSVNAIPGSAVCAFNVDDILAAFDGEFKSQKDSQSHWLPVEREQVPKPRPGQCVEDSRTLTSIAVNFIKNHPLMEEAVPAVHGRPLLTKVNLHHRLTAIAVHPQVKSLSGAYYDVIYSGTDDGKVTKFINILSTHPNSTVDRLKTVVISEMQVLPLGTPIRELVISTSKNSLVVVSDGSLVSVPLHHCSHIVDCLGCLSLQDPICAWDLQTHECKNLATSQHKFGTKTYLQSLNSTKKAAALLCPHIPRDAPGAETVSFVTMAPPPTEEQKLLYSNVGSSQGNQPSLEQQPTGGDDFGLNKITLTSMDPDDIMPNLNDPQKSTASVDEIKYASTPS
notes: Semaphorin-1b, Drosophila melanogaster, ectodomain, residues 37D-659S, F254C; also called Sema1b_(ecto) F254C; source: HEK293T, transient transfection, purified (HisTrap, SEC)
stoichiometry N [7]: 2

B4: Drosophila melanogaster semaphorin-1b full-length ectodomain (Sema1b_(ecto)) (domain or fragment, UniProt Q7KK54 37-659, looked up)
chain: DVKPDLQTKQDKVLAHFIGNSTDYFKILDHNDEFVLVGAKDVIYNVSLNGLKEIARLEWHSTDADRELCALKGKHEWDCHNYLRVYALRPNGEVLLCGTNSYKPRCRHYTPVEVSSEEAGSAGHAHAMRYEVSRDVEAQGLCPYSPAHNSTYAFADGHLYSATVADFSGGDPLIYRENLRTEQYDLKQLNQPDFVGAIERNGYVLFFFRELSMEVMNFGKAVYSRVARVCKNDRGGPYSHGKSWTSFLKARLNCSVPGEFPFYFDEIQAISPIVESGSKSLIYAVFTTSVNAIPGSAVCAFNVDDILAAFDGEFKSQKDSQSHWLPVEREQVPKPRPGQCVEDSRTLTSIAVNFIKNHPLMEEAVPAVHGRPLLTKVNLHHRLTAIAVHPQVKSLSGAYYDVIYSGTDDGKVTKFINILSTHPNSTVDRLKTVVISEMQVLPLGTPIRELVISTSKNSLVVVSDGSLVSVPLHHCSHIVDCLGCLSLQDPICAWDLQTHECKNLATSQHKFGTKTYLQSLNSTKKAAALLCPHIPRDAPGAETVSFVTMAPPPTEEQKLLYSNVGSSQGNQPSLEQQPTGGDDFGLNKITLTSMDPDDIMPNLNDPQKSTASVDEIKYASTPS
notes: Semaphorin-1b, Drosophila melanogaster, ectodomain, residues 37D-659S; Monomer in solution; source: HEK293T (30 °C), transient transfection, purified (HisTrap, SEC)
Kd ([4]; both partners purified): 586 ± 134 nM

Further lines, with some results ahead:

Kd [1]: 13 nM
Molecule: Sema2a/2b heterodimer (Sema2a_(full)-TwinStrep with Sema2b_(full)-His6, disulfide-linked) (from UniProt Q24323 26-724) (complex)

Kd [4]: 141 nM
Molecule: Fc-tagged dimerized Sema1a_(ecto) (Sema1a_(ecto)-Fc) (from UniProt Q24322 21-602) (Fc fusion)

stoichiometry N [5]: 2
Molecule: Sema2b_(full) with the dimerization cysteine mutated to serine (ligand)

stoichiometry N [6]: 1
B1: Drosophila melanogaster full-length secreted semaphorin-2a (Sema2a_(full)) (ligand, UniProt Q24323 26-724, looked up)
chain: DYENTWNFYYERPCCTGNDQGNNNYGKHGADHVREFNCGKLYYRTFHMNEDRDTLYVGAMDRVFRVNLQNISSSNCNRDVINLEPTRDDVVSCVSKGKSQIFDCKNHVRVIQSMDQGDRLYVCGTNAHNPKDYVIYANLTHLPRSEYVIGVGLGIAKCPYDPLDNSTAIYVENGNPGGLPGLYSGTNAEFTKADTVIFRTDLYNTSAKRLEYKFKRTLKYDSKWLDKPNFVGSFDIGEYVYFFFRETAVEYINCGKAVYSRIARVCKKDVGGKNLLAHNWATYLKARLNCSISGEFPFYFNEIQSVYQLPSDKSRFFATFTTSTNGLIGSAVCSFHINEIQAAFNGKFKEQSSSNSAWLPVLNSRVPEPRPGTCVNDTSNLPDTVLNFIRSHPLMDKAVNHEHNNPVYYKRDLVFTKLVVDKIRIDILNQEYIVYYVGTNLGRIYKIVQYYRNGESLSKLLDIFEVAPNEAIQVMEISQTRKSLYIGTDHRIKQIDLAMCNRRYDNCFRCVRDPYCGWDKEANTCRPYELDLLQDVANETSDICDSSVLKKKIVVTYGQSVHLGCFVKIPEVLKNEQVTWYHHSKDKGRYEIRYSPTKYIETTERGLVVVSVNEADGGRYDCHLGGSLLCSYNITVDAHRCTPPNKSNDYQKIYSDWCHEFEKYKTAMKSWEKKQAQCSTRQNFSSNQHPNEIFRKPNV
notes: Semaphorin-2a, Drosophila melanogaster, residues 26D-724V; Disulfide-linked dimer in solution; source: HEK293T (37 °C), transient transfection, purified (HisTrap, SEC)
stoichiometry N [7]: 2

Reference: publication PMC6695400, “Diversity of oligomerization in Drosophila semaphorins suggests a mechanism of functional fine-tuning” (Nature Communications, 2019)
